Patent US20090131309A1, “ICA512 COUPLES INSULIN SECRETION AND GENE EXPRESSION IN BETA-CELLS” (Technische Universität Dresden Medizinizche Fakultät Carl …, priority 2004, published 2009)

Experiments:
STAT5 = assay: Firefly luciferase reporter assay for STAT activity (8GLE-CAS-FL) in INS-1 cells; type: cell-based, rat; settings: co-transfected INS-1 cells, hGH stimulation
Description: Firefly luciferase assays. INS-1 cells were co-transfected with 8GLE-CAS-FL and one or two of the following plasmids: pEGFP, ICA512-CCF-GFP, ICA512-CCF(K/A^754)-GFP and PIASy-GFP. Two days after transfection, cells were incubated in low serum medium for 18 hrs, then stimulated with 20 nM hGH for 20 minutes, and finally left in resting buffer for 6 additional hours. Cells were harvested in 500 μl lysis reagent for luciferase assays (Promega) and 10 μl were used for measurement of luciferase activity in a Berthold luminometer. Each sample was performed in triplicate and the data represent the mean of at least 2 independent experiments.

[1] = tested on: GLE of the rat insulin I gene promoter; assay: Chromatin immunoprecipitation, GLE of rat insulin I gene promoter; type: binding; settings: stable INS-1 cells, anti-GFP antibodies vs control IgG
ICA512 mRNA = ICA512 mRNA by real-time PCR in INS-1 cells; type: cell-based, rat; settings: transfected INS-1 cells vs cells expressing GFP alone
Description: PCR and real-time PCR. Cytosolic mRNA was isolated with the Oligotex Direct mRNA kit (Qiagen) according to the manufacturer's protocol. PolyA^+-enriched RNA was reverse transcribed with specific antisense primers for ICA512 and β-actin as described^8. Amplification of a 200 bp fragment flanking the GLE in the rat insulin1 (rINS1) gene promoter by PCR and real-time PCR was performed with the following primers: sense [NT], antisense [NT]. Amplification of ICA512 and β-actin was performed as described^16.

STAT5b [2] = molecular target: T1, STAT5b (Rattus norvegicus, UniProt P52632); assay: Co-immunoprecipitation with anti-GFP antibodies from INS-1 extracts; type: binding; settings: hGH-stimulated INS-1 cells
T1 construct: endogenous in cells; host or cells: INS-1 cells transiently transfected with ICA512-CCF-GFP
T1 sequence (P52632 1-786): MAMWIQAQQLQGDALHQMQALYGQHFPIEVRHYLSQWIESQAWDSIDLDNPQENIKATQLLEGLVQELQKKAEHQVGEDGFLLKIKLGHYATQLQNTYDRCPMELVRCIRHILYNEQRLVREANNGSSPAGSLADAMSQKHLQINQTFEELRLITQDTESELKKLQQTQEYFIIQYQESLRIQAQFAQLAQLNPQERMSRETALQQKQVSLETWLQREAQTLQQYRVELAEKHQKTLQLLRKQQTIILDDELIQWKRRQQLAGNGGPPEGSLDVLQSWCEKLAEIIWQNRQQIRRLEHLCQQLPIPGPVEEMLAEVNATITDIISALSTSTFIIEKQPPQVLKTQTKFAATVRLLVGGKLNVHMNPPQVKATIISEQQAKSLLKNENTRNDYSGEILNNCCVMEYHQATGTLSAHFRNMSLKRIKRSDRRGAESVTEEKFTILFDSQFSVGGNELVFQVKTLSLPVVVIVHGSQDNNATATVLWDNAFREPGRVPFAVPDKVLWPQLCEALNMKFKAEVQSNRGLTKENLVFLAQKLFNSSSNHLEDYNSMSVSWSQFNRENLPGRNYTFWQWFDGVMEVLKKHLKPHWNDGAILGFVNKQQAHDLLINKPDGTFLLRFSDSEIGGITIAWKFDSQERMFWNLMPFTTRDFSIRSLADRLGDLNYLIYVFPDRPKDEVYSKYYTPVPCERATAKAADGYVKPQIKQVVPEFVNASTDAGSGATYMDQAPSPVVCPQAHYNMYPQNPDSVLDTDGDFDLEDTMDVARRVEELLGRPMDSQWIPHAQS
Description: Immunoprecipitation. INS-1 cells were transiently transfected With one or more of the following constructs: GFP, ICA512-CCF-GFP, ICA512-CCF(K/A^754)-GFP, SUMO-1 and HA-SUMO-1. Anti-GFP IgGs were used for immunoprecipitations from total or cytosolic extracts. Immunoprecipitates were immunoblotted with anti-STAT5b, anti-PY-STAT5, anti-GFP or anti-HA antibodies. 600 μg and 200 μg protein were used as starting material for immunopreciptation of sumoylated ICA512 and STAT5, respectively.

INS-1 cells = assay: Uridine incorporation in INS-1 cells; type: cell-based, rat; settings: relative to GFP-transfected INS-1 cells
GLE of rat insulin 1 = assay: EMSA with biotinylated GLE oligonucleotide of rat insulin 1 promoter; type: binding; settings: nuclear extracts of INS-1 cells expressing increasing amount of construct
Insulin mRNA = Insulin mRNA levels by real-time PCR in INS-1 cells; type: cell-based, rat
Description: Time-course stimulation of INS-1 cells. INS-1 ceils were incubated for 1 hr. in resting buffer (2.8 mM glucose and 5 mM KCl), then for 6 hrs. in resting or stimulating buffer, with or without 40 μM calpeptin, and then again in resting buffer for up to 24 hrs. Total RNA for real-time PCR was collected at time 0, 2 and 6 hrs. during stimulation and at 2, 6, 12 and 24 hrs. during the following resting period.
Real-time PCR. Total RNA from INS-1 cells was isolated with Trizol (Invitrogen, Karlsruhe, Germany) according to the manufacturer's protocol. 1 μg of total RNA was used for the reverse transcriptase reaction, with 2 μM specific antisense primers for […] and insulin, as described (31). mRNA expression was measured by quantitative real-time PCR using the Brilliant SYBR Green QPCR (Stratagene, La Jolla, Calif.) with an Mx4000 Multiplex Quantitative Real Time PCR System (Stratagene).

pro-ICA512 = assay: Immunoblot for pro-ICA512 and ICA512-TMF in INS-1 cells; type: cell-based, rat
Description: (§1) Culture of INS-1 cells. INS-1 cells were grown as described^27. In some instances cells were pre-incubated for 1 hour in resting buffer (0 mM glucose, 5 mM KCl) and then for 2 or 6 hours in resting or stimulating (25 mM glucose, 55 mM KCl) buffers as described^7. Calpeptin (Calbiochem) was added in the last 15 minutes of the pre-incubation, and then for the entire following period before cells were harvested. Cells were stimulated with 20 nM human growth hormone (hGH) for 20 minutes following 18 hours incubation in low serum medium (LSM) containing RPMI-1640, 11 mM glucose, 0.5% FBS 25 mM HEPES, 1% penicillin-streptomycin and 0.05 mM β-mercaptoethanol. After washing, cells were either harvested or incubated in LSM for 6 additional hours. For immunoprecipitation cells were collected 1 hour after stimulation with hGH.
Cell extracts and western blotting. INS-1 cells and pancreatic islets were harvested at 4° C. in RIPA buffer [50 mM Tris-HCl at pH 8.0, 150 mM NaCl, 1% NP-40, 0.1% SDS, 0.5% sodium deoxycholate, and 1× protease inhibitor cocktail (Sigma)] to obtain total extracts. Insoluble material was removed by centrifugation. Cytosolic and nuclear extracts were prepared using the NE-PER Nuclear and Cytoplasmic Extraction Reagents (Pierce). Proteins were separated by 8-10% SDS-PAGE and immunoblotted with the following antibodies: mouse monoclonals anti-ICA512^7, anti-STAT5 (Santa Cruz), anti-γ-tubulin and anti-HA (Sigma); rabbit anti-PY-STAT5 and anti-STAT3 (Cell Signaling); affinity purified goat anti-GFP IgGs. Chemiluminescence was developed using the Supersignal West Pico or Femto kits (Pierce) and detected with a LAS 3000 Bioimaging System (Fuji). Protein signals were quantified with the Image Gauge v3.45 software (Fuji). Half the amount of nuclear extract proteins were immunoblotted relative to total and cytosolic extract proteins.

STAT5b [3] = assay: Nuclear levels of STAT5b, PY-STAT5 and STAT3 in INS-1 cells (immunoblot); type: cell-based, rat
Description: as §1
Cell extracts and western blotting. INS-1 cells and pancreatic islets were harvested at 4° C. in RIPA buffer [50 mM Tris-HCl at pH 8.0, 150 mM NaCl, 1% NP-40, 0.1% SDS, 0.5% sodium deoxycholate, and 1× protease inhibitor cocktail (Sigma)] to obtain total extracts. Insoluble material was removed by centrifugation. […] Chemiluminescence was developed using the Supersignal West Pico or Femto kits (Pierce) and detected with a LAS 3000 Bioimaging System (Fuji). Protein signals were quantified with the Image Gauge v3.45 software (Fuji). […]

co-immunoprecipitation of STAT5b and PY-STAT5 (STAT5b [2]): co-immunoprecipitated | binding of a factor, conceivably STAT5b, to the GLE oligonucleotide (GLE of rat insulin 1): positive correlation
B1: ICA512-CCF-GFP: ICA512 cytoplasmic fragment generated by μ-calpain, residues 659-979, fused at its C-terminus with GFP (protein)
chain: SQFSDAAQASPSSHSSTPSWCEEPAQANMDISTGHMILAYMEDHLRNRDRLAKEWQALCAYQAEPNTCATAQGEGNIKKNRHPDFLPYDHARIKLKVESSPSRSDYINASPIIEHDPRMPAYIATQGPLSHTIADFWQMVWESGCTVIVMLTPLVEDGVKQCDRYWPDEGASLYHVYEVNLVSEHIWCEDFLVRSFYLKNVQTQETRTLTQFHFLSWPAEGTPASTRPLLDFRRKVNKCYRGRSCPIIVHCSDGAGRTGTYILIDMVLNRMAKGVKEIDIAATLEHVRDQRPGLVRSKDQFEFALTAVAEEVNAILKALPQ
modifications: left off: large carriers
notes: ICA512 cytoplasmic fragment generated by μ-calpain, residues 659-979, fused at its C-terminus with GFP
STAT5 transcription activity (8GLE-CAS-FL luciferase) (STAT5): partially restored | co-immunoprecipitation of GLE of the rat insulin I gene promoter [1]: co-immunoprecipitated with anti-GFP antibodies | ICA512 mRNA increase (ICA512 mRNA): 81% | total incorporation of 3H-uridine (INS-1 cells): 270% | insulin mRNA levels vs amount of construct expressed (Insulin mRNA; 0.5-4 μg construct, 4 days in culture with 11 mM glucose): correlation between the increased expression of ICA512 (659-979)-GFP and the enhancement of insulin mRNA levels | Insulin mRNA increase (Insulin mRNA; resting INS-1 cells transiently transfected, vs electroporated cells): 93% | further increase of insulin mRNA by stimulation (Insulin mRNA; stimulated transfected INS-1 cells): 60% | ICA512-TMF levels (pro-ICA512; transfected INS-1 cells vs GFP): also increased | pro-ICA512 increase (pro-ICA512; transfected INS-1 cells vs cells expressing GFP alone): 40% | STAT5b and STAT3 in the nucleus (STAT5b [3]; INS-1 cells transfected with increasing amount of construct): dose-dependent increase | Nuclear STAT5b and nuclear PY-STAT5 (STAT5b [3]; hGH 20 nM 20 min, ICA512-CCF-GFP vs GFP cells, AD/DA mutant vs ICA512-CCF-GFP cells): clearly increased
